Results published in patent US20240116985A1 (published 2024).
Starred links: 1 amine or outer side, 2 acyl side, 3 side chain; linkers in the order of their positions; H or OH if unused. Positions of bridges follow the written chain, without caps; N, C: chain ends. Non-standard residues stand in square brackets, D forms with d. Primed or numbered codes have the meaning given here. B5(16) = 2-amino-2-(pent-4-en-1-yl)hept-6-enoic acid = 2,2-bis(4-pentenyl)glycine (stitching residue), C=CCCCC(CCCC=C)(N[*:1])C(=O)[*:2]; PyrS2 = (S)-3-amino-1-((pent-4-en-1-yloxy)carbonyl)pyrrolidine-3-carboxylic acid, C=CCCCOC(=O)N1CC[C@@](N[*:1])(C(=O)[*:2])C1; B5(19) = 2-amino-2-(pent-4-en-1-yl)hept-6-enoic acid (bis(4-pentenyl)glycine), C=CCCCC(CCCC=C)(N[*:1])C(=O)[*:2]; 2COOHF″ = O=C([C@H](Cc1ccccc1C(=O)[*:3])N[*:1])[*:2]; Bta = N[C@@H](Cc1csc2ccccc12)C(=O)O; αAllylPro = C=CC[C@@]1(C(=O)O)CCCN1; tBuAla = CC(C)(C)C[C@H](N)C(=O)O; 3Thi = N[C@@H](Cc1ccsc1)C(=O)O; PyrS2(4) = not defined here

T1: B-cat-Halo (beta-catenin HaloTag NanoBRET construct expressed in HEK293 cells) (UniProt P35222 1-781, HaloTag NanoBRET 618 Ligand bound in the assay)
T1 sequence (looked up): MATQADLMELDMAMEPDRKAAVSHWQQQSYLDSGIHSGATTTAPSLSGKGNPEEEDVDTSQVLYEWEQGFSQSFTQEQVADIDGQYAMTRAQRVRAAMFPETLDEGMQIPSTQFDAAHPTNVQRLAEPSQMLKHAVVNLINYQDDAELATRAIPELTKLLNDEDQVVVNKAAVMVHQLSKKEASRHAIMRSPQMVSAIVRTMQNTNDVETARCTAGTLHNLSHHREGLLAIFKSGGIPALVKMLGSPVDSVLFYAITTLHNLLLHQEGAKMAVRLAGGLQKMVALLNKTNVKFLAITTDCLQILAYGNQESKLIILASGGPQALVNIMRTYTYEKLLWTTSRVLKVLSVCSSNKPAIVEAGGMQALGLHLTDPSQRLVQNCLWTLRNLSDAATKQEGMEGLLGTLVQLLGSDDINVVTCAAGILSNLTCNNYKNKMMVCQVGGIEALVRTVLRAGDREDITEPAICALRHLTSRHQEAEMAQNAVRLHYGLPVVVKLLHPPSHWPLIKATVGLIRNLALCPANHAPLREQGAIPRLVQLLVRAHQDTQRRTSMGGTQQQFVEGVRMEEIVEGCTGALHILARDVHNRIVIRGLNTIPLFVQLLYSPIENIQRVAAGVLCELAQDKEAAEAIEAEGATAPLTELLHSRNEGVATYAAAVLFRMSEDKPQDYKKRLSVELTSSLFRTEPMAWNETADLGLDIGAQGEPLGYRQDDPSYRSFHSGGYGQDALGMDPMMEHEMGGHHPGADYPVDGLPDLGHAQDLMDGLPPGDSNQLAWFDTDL

T2: full-length beta-Catenin (Uniprot ID P35222) (Homo sapiens (Human), UniProt P35222 2-781)
T2 construct: The FP protocol names full-length beta-Catenin (Uniprot ID P35222); also called bCat; B-Catenin
T2 sequence: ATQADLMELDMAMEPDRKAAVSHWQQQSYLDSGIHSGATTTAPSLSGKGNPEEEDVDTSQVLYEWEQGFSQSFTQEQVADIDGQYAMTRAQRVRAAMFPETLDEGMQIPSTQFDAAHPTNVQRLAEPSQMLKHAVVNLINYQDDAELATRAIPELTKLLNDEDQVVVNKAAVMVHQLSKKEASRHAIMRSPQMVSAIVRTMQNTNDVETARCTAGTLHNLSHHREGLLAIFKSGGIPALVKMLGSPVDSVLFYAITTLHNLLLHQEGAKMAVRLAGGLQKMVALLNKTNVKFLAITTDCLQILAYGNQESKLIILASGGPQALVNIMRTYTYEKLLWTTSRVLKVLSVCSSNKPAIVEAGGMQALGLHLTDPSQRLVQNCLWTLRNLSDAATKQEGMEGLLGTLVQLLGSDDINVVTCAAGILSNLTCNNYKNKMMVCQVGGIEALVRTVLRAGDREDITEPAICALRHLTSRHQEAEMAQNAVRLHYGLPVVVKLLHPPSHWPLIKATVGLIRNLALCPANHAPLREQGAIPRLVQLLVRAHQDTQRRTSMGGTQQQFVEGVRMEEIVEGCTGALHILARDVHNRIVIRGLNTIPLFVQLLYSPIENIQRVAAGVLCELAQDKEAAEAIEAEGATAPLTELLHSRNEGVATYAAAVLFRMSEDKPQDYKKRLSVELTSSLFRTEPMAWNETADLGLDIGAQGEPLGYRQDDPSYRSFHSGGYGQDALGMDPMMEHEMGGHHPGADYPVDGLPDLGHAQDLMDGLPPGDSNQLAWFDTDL

T3: beta-catenin in DLD1 TCF/LEF luciferase reporter cells (UniProt P35222 1-781)
T3 sequence (looked up): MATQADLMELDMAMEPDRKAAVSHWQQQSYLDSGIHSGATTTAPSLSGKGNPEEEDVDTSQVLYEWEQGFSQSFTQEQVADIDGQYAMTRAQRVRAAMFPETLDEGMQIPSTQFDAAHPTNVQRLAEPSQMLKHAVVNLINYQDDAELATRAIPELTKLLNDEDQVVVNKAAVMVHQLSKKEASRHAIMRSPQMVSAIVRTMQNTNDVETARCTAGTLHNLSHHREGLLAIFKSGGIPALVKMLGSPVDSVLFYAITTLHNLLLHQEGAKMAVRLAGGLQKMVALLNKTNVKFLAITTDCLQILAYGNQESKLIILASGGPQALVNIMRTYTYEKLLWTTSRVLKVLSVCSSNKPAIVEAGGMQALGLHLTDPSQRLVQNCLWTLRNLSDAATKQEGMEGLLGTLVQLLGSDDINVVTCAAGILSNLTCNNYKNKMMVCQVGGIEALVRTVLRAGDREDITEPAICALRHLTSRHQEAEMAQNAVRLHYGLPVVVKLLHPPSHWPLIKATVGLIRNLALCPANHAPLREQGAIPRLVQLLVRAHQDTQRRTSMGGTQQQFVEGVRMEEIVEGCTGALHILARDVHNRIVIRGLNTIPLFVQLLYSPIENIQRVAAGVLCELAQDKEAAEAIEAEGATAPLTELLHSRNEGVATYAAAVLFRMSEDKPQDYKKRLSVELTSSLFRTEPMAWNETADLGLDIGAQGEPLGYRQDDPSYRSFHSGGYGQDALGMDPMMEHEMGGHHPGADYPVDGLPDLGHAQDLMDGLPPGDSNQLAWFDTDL

B1: I-1811 (peptide)
peptide: Ac-[αAllylPro]DL[B5(19)]DDAAFL[PyrS2]FWQ-NH2
modifications: staple 1-4, 4-11
notes: Stapled peptide; also called Ac-PL3-Asp-Leu-B5-Asp-Asp-Ala-Ala-Phe-Leu-PyrS2-Phe-Trp-Gln-NH2

Key:
[1] = molecular target: T1, B-cat-Halo (beta-catenin HaloTag …); test: cell-based or functional assay
[2] = molecular target: T2, full-length beta-Catenin (Uniprot ID …); test: fluorescence polarization competition; full-length beta-catenin, 5FAM-TCF4(10-53) probe as competitor
Outline: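 Data fitted to 1:1 binding model with hill slope from duplicate reads taken after 60 minutes at 20° C. in the dark.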

[3] = molecular target: T3, beta-catenin in DLD1 TCF/LEF luciferase …; test: cell-based or functional assay

| Binder | NanoBRET Abs IC50 [1] [µM] | IC50 [2] [nM] | DLD1 4% Abs IC50 [3] [µM] |
| --- | --- | --- | --- |
| B1 | 32.3 | 156 | – |
| Ac-[αAllylPro]D[tBuAla][B5(16)]D[2COOHF″]AAFL[PyrS2(4)][3Thi][Bta]S-NH2 (staple 1-4, 4-11; not fully specified; reading uncertain) [I-1667] | – | – | 1.3 |
